Data published in patent US20220112276A1 (Janssen / Centocor, published 2022).

T1: mouse pIgR extracellular domain (ECD) (mouse, UniProt O70570 19-645)
T1 construct: Bought from R&D Systems (Cat 2800-PG-050); also called mpIgR ECD
T1 sequence: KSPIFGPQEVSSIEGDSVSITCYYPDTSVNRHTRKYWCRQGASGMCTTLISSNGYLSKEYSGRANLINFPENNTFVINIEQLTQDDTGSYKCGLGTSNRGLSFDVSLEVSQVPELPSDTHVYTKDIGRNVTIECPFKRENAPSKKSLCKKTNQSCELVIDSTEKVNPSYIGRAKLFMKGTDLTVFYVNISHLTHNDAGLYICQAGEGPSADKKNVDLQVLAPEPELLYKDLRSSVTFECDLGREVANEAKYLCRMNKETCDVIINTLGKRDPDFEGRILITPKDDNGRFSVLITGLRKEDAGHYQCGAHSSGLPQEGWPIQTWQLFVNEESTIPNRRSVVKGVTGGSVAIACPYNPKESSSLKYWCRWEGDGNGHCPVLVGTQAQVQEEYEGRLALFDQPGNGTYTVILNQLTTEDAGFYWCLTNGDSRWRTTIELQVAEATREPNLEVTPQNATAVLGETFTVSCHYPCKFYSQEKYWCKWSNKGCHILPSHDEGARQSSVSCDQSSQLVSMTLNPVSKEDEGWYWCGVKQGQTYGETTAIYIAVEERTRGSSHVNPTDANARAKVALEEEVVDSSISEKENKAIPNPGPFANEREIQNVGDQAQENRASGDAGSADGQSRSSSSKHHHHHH


Key:
Assay in all cases: SPR, VHH captured by anti-Fc, ECD analyte
[1] = biological target: T2, cynomolgus monkey pIgR extracellular domain (cynomolgus monkey, UniProt A0A2K5WMU9 19-638)
T2 construct: extracellular domain
Method in brief: (§1)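 Anti-human Fc surface captured VHH at 0.5 ug/ml (~200-300 RU); running buffer HBSP with 100 ug/ml BSA, 30 μL/min. Single-cycle kinetics with ECD injected low to high from 30 nM in 3-fold dilutions, dissociation 30 min. Double-referenced data globally fit to 1:1 Langmuir model for kon, koff, KD.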

[2] = biological target: T3, human pIgR extracellular domain (ECD) (human, UniProt P01833 19-638)
T3 construct: Bought from R&D Systems (Cat 2717-PG-050); also called hpIgR ECD
Method in brief: as §1

[3] = biological target: T1, mouse pIgR extracellular domain (ECD)
Method in brief: as §1

T3 sequence (P01833 other isoform, or with tags, fused parts or gaps): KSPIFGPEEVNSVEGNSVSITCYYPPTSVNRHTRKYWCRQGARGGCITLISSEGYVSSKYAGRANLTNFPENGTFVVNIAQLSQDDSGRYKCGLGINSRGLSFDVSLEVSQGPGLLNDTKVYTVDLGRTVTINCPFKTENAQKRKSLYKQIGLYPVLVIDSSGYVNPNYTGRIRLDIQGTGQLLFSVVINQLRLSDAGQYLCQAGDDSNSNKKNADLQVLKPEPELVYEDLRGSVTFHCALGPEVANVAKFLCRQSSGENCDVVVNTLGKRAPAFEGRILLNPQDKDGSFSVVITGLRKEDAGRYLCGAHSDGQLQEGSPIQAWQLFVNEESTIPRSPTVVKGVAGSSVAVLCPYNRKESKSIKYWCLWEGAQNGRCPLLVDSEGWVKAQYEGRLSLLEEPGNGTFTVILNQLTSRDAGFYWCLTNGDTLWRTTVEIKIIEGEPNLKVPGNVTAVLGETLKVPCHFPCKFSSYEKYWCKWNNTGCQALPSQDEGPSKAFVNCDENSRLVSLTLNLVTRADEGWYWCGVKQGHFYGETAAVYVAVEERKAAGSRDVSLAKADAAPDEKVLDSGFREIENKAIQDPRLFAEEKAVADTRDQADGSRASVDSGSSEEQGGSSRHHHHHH
T2 sequence (A0A2K5WMU9 entry or part of it): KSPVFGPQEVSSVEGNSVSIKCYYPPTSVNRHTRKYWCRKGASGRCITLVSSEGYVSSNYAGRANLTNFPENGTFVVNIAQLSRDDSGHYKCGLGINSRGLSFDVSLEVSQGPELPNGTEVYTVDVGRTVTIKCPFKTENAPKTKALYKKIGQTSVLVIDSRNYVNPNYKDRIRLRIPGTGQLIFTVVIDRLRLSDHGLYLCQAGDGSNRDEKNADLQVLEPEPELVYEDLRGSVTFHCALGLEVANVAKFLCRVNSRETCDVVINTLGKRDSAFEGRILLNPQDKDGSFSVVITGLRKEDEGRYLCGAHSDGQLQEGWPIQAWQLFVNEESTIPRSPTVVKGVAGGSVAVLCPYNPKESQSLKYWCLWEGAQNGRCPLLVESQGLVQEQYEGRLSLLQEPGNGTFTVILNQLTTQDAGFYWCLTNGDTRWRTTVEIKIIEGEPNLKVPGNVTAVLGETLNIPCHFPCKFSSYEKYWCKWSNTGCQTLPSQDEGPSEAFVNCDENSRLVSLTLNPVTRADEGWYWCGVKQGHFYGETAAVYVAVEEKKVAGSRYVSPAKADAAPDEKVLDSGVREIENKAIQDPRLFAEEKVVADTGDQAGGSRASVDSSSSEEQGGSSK

| Binder | Kd [1] | Kd [2] | Kd [3] |
| --- | --- | --- | --- |
| 01F04R3LS VHH Mono-Fc (Fc fusion) EVQLVESGGGLVQAGGSLRLSCAASGRTFSRYAMGWFRQAPGKEREFVAAIAWSGGAIYYADFVKGQFTISRDNAKNTVDLEMNRLKPEDTAVYYCGSTRDPRVGDKKFYDYWGQGTQVTVSSSPAPELLGGPSVFLFPPKPKDTLMISRTPEVTCVVVDVSHEDPEVKFNWYVDGVEVHNAKTKPREEQYNSTYRVVSVLTVLHQDWLNGKEYKCKVSNKALPAPIEKTISKAKGQPREPQVYTKPPSREEMTKNQVSLSCLVKGFYPSDIAVEWESNGQPENNYKTTVPVLDSDGSFRLASYLTVDKSRWQQGNVFSCSVMHEALHNHYTQKSLSLSPGK | 236 nM | 23.8 nM |  |
| 01G02R2LS VHH Mono-Fc (Fc fusion) QVQLVESGGGLVQAGDSLALSCAGSGDTFSNYAMGWFRQAPGKEREFVADISWYGANIGYADSVKGRFTISRDNAKNMVTLRMNSLKPEDTAVYYCAADRNHWPVKGDYWGQGTQVTVSSSPAPELLGGPSVFLFPPKPKDTLMISRTPEVTCVVVDVSHEDPEVKFNWYVDGVEVHNAKTKPREEQYNSTYRVVSVLTVLHQDWLNGKEYKCKVSNKALPAPIEKTISKAKGQPREPQVYTKPPSREEMTKNQVSLSCLVKGFYPSDIAVEWESNGQPENNYKTTVPVLDSDGSFRLASYLTVDKSRWQQGNVFSCSVMHEALHNHYTQKSLSLSPGK |  |  | 23.3 nM |
| 01C01R2LS VHH Mono-Fc (Fc fusion) QVQLVESGGGLQQAGGSLRLSCAASGRTVTVMTVGWFRQAPGKEREFVAAITMYGERTYYADSVKGRFTISRDNAKNTVDLQMNSLKPEDAAVYYCAARTYVSGIYDRFDDYNYWGQGTQVTVSSSPAPELLGGPSVFLFPPKPKDTLMISRTPEVTCVVVDVSHEDPEVKFNWYVDGVEVHNAKTKPREEQYNSTYRVVSVLTVLHQDWLNGKEYKCKVSNKALPAPIEKTISKAKGQPREPQVYTKPPSREEMTKNQVSLSCLVKGFYPSDIAVEWESNGQPENNYKTTVPVLDSDGSFRLASYLTVDKSRWQQGNVFSCSVMHEALHNHYTQKSLSLSPGK |  |  | 11.3 nM |
| 01G07R3 VHH Mono-Fc (Fc fusion) QVQLVESGGGLVQAGDSLRLSCAASGRTLSFDTYAMGWFRQAPGKEREFVASIDWSGGTTYYADSVKGRFTVTRDNAKNTVTLRMNSLKPADTAVYYCAAAQYYRSGTSFPANYWGQGTLVTVSSSPAPELLGGPSVFLFPPKPKDTLMISRTPEVTCVVVDVSHEDPEVKFNWYVDGVEVHNAKTKPREEQYNSTYRVVSVLTVLHQDWLNGKEYKCKVSNKALPAPIEKTISKAKGQPREPQVYTKPPSREEMTKNQVSLSCLVKGFYPSDIAVEWESNGQPENNYKTTVPVLDSDGSFRLASYLTVDKSRWQQGNVFSCSVMHEALHNHYTQKSLSLSPGK | 40.8 nM | 1.18 nM |  |
| 03G07R3 VHH Mono-Fc (Fc fusion) EVQLVESGGGLVQAGDSLRLSCAASGRTLSFDTYAMAWFRQAPGKEREFVASIDYNGGSTDYADSVKGRFTVTRDNAKNTVTLRMNSLKPDDTAVYYCASARYYRSGTSFPVNYWGQGTQVTVSSSPAPELLGGPSVFLFPPKPKDTLMISRTPEVTCVVVDVSHEDPEVKFNWYVDGVEVHNAKTKPREEQYNSTYRVVSVLTVLHQDWLNGKEYKCKVSNKALPAPIEKTISKAKGQPREPQVYTKPPSREEMTKNQVSLSCLVKGFYPSDIAVEWESNGQPENNYKTTVPVLDSDGSFRLASYLTVDKSRWQQGNVFSCSVMHEALHNHYTQKSLSLSPGK | 361 nM | 2.63 nM | 5.58 nM |

The next lines start with the values.

| Kd [1] | Kd [2] | Kd [3] | Binder |
| --- | --- | --- | --- |
| 5.73 nM | 2.18 nM |  | 01C09R3 VHH Mono-Fc (Fc fusion) EVQLVESGGGLVQAGGSLRLSCAASGFTFRTYYMGWFRQAPGKEREFVGVTRSSDDVTYYADSVKGRFTISRDNAKNTVYLQMSRLKPEDTAVYYCAAKPVPITRYSFPQIGEEYDYWGQGTLVTVSSSPAPELLGGPSVFLFPPKPKDTLMISRTPEVTCVVVDVSHEDPEVKFNWYVDGVEVHNAKTKPREEQYNSTYRVVSVLTVLHQDWLNGKEYKCKVSNKALPAPIEKTISKAKGQPREPQVYTKPPSREEMTKNQVSLSCLVKGFYPSDIAVEWESNGQPENNYKTTVPVLDSDGSFRLASYLTVDKSRWQQGNVFSCSVMHEALHNHYTQKSLSLSPGK |
| 9.51 nM | 2.46 nM |  | 02B09R3 VHH Mono-Fc (Fc fusion) EVQLVESGGGLVQPGGSLRLSCAASGFTFRTYYMGWFRRAPGKEREFVGVTRSSDDVTYYADSVKGRFTISRDNAKDTVYLQMSRLKPEDTAVYYCAAKPVPITRYSFPQIGEEYDYWGQGTLVTVSSSPAPELLGGPSVFLFPPKPKDTLMISRTPEVTCVVVDVSHEDPEVKFNWYVDGVEVHNAKTKPREEQYNSTYRVVSVLTVLHQDWLNGKEYKCKVSNKALPAPIEKTISKAKGQPREPQVYTKPPSREEMTKNQVSLSCLVKGFYPSDIAVEWESNGQPENNYKTTVPVLDSDGSFRLASYLTVDKSRWQQGNVFSCSVMHEALHNHYTQKSLSLSPGK |
| 20.6 nM | 3.24 nM |  | 01H02R3LS VHH Mono-Fc (Fc fusion) QVQLVESGGGLVQPGGSLRLSCAASGSIFSASVMGWYRQGPGKQREFVARISPGGVTHYADSVKGRFTISKDNAKNTVTLQMNSLKPEDTAVYYCNADRFGFEVYWGQGTLVTVSSSPAPELLGGPSVFLFPPKPKDTLMISRTPEVTCVVVDVSHEDPEVKFNWYVDGVEVHNAKTKPREEQYNSTYRVVSVLTVLHQDWLNGKEYKCKVSNKALPAPIEKTISKAKGQPREPQVYTKPPSREEMTKNQVSLSCLVKGFYPSDIAVEWESNGQPENNYKTTVPVLDSDGSFRLASYLTVDKSRWQQGNVFSCSVMHEALHNHYTQKSLSLSPGK |
| 8.43 nM | 1.23 nM |  | 01C02R3 VHH Mono-Fc (Fc fusion) QVQLVESGGGLVQAGGSLRLSCAASGLSFSSYTMGWFRQVPGKERELISAIHWSGGPTFYSNSVKGRFTISRDNAKDTVYLQMNSLKPEDTAVYYCTAEPVGSMISPDWTYWGQGTLVTVSSSPAPELLGGPSVFLFPPKPKDTLMISRTPEVTCVVVDVSHEDPEVKFNWYVDGVEVHNAKTKPREEQYNSTYRVVSVLTVLHQDWLNGKEYKCKVSNKALPAPIEKTISKAKGQPREPQVYTKPPSREEMTKNQVSLSCLVKGFYPSDIAVEWESNGQPENNYKTTVPVLDSDGSFRLASYLTVDKSRWQQGNVFSCSVMHEALHNHYTQKSLSLSPGK |
| 0.018 nM | 0.6 nM |  | 01E02R3LS VHH Mono-Fc (Fc fusion) EVQLVESGGGLVETGGSLRLSCAASGRTESTYTMAWFRQAPGKERERVATISFSGSTTTYLASVQGRFTISRDGAKNTIFLQMNGLKPEDTAVYYCALDTRRRVGSSPRFYDYWGQGTLVTVSSSPAPELLGGPSVFLFPPKPKDTLMISRTPEVTCVVVDVSHEDPEVKFNWYVDGVEVHNAKTKPREEQYNSTYRVVSVLTVLHQDWLNGKEYKCKVSNKALPAPIEKTISKAKGQPREPQVYTKPPSREEMTKNQVSLSCLVKGFYPSDIAVEWESNGQPENNYKTTVPVLDSDGSFRLASYLTVDKSRWQQGNVFSCSVMHEALHNHYTQKSLSLSPGK |
| 0.905 nM | 0.606 nM |  | 03D12R3 VHH Mono-Fc (Fc fusion) QVQLVESGGGLVQAGGSLRLSCAASGRTFSSYAMGWFRQAPGKEREFAAVITWNGGSTHYADSVKGRFTISRDNAKNTVYLQMNSLKPEDTAVYYCAADPMNSPYWGQGTQVTVSSSPAPELLGGPSVFLFPPKPKDTLMISRTPEVTCVVVDVSHEDPEVKFNWYVDGVEVHNAKTKPREEQYNSTYRVVSVLTVLHQDWLNGKEYKCKVSNKALPAPIEKTISKAKGQPREPQVYTKPPSREEMTKNQVSLSCLVKGFYPSDIAVEWESNGQPENNYKTTVPVLDSDGSFRLASYLTVDKSRWQQGNVFSCSVMHEALHNHYTQKSLSLSPGK |
